Laboratory results reported in patent publication US20200234789A1, “DESIGNED PROTEINS FOR LIGAND BINDING” (THE REGENTS OF THE UNIVERSITY OF CALIFORNIA, priority 2017, published 2020).

B1: PS2: second designed porphyrin-binding protein with redesigned core (Ser94, Trp68), SEQ ID NO:7 (protein)
chain: SEFEKLRQTGDEIIQLLQRLREAIDKGDDDSLEQILEELEEAFQKHRQLFENRQEAADTEFAKQGDQWLQLFQRIREAIDKGDKDSLEQLFEESEQGIQKIRELAEKKN
B2: PS1 D103-109: PS1 variant with 7 terminal residues near the ligand binding site deleted, SEQ ID NO:8 (protein)
chain: EFEKLRQTGDELVQAFQRLREIFDKGDDDSLEQVLEEIEELIQKHRQLFDNRQEAADTEAAKQGDQWVQLFQRFREAIDKGDKDSLEQLLEELEQALQKIR

Columns and labels:
[1] = Porphyrin binding to apo-protein, electronic absorption spectra ((CF3)4PZn loading)
Procedure: FIGS. 3A-3D. Biophysical characterization of apo- and holo-PS1. FIG. 3A: Electronic absorption and emission spectra of (CF3)4PZn/PS1 holo-protein and (CF3)4PZn in toluene solvent. […] FIG. 3B: Determination of KD by apo-PS1 titration into a buffer solution (100 mM NaCl, 50 mM NaPi, pH 7.5) of (CF3)4PZn with 1% w/v octyl-b-D-glucopyranoside. […] FIG. 3C: Circular dichroism (CD) spectra of apo- and holo-PS1 in 50 mM NaPi, 100 mM NaCl, pH 7.5 as a function of temperature. The transitions appear reversible based on the fact that the spectra are identical after cooling to room temperature. Units are in molar residue ellipticity. […] FIG. 3D: Pump-probe transient absorption spectra of (CF3)4PZn bound in the interior of holo-PS1 at 21° C. and 100° C. […] Inset exemplifies identical transient dynamics (primarily intersystem crossing from S1 to T1) at ΔAbs.=482 nm (scaled). Experimental conditions: solvent=50 mM NaPi, 100 mM NaCl, pH 7.5; excitation wavelength=600±5 nm; magic-angle polarization between pump and probe pulses; pump-probe cross-correlation of ˜250 fs.
FIG. 10. Absorption spectra of (CF3)4PZn/PS1 and (CF3)4PZn/PS2 complexes. […] Experimental conditions: buffer=100 mM NaCl, 50 mM NaPi, pH 7.5.
A 2-fold excess of the cofactor (CF3)4PZn was added from a 4 mM DMSO stock solution to a 50 mM NaPi, 100 mM NaCl, pH 7.5 buffer with apo-protein (Note that final DMSO concentrations were kept <1%.). Buffer solution of apo-PS1 protein was heated for 5 minutes at 50° C., (CF3)4PZn was then added from the DMSO stock solution, the resultant mixture was vortexed for 5 seconds, and placed back in the heat block at 50° C. for 15 minutes, with vortexing every 3 minutes. The protein/cofactor solution was then spun at 14000×g in a Amicon Ultra-0.5 mL centrifuge filter for 10 min, three times, replacing the buffer to 0.5 mL after each 10 min spin. Finally, the protein solution was spun for 4 min at 12000×g in an Amicon ultrafree-MC GV filter (UFC30GV0S). The holo-PS1 sample was then used for spectroscopic experiments immediately afterward, and diluted to an appropriate concentration if necessary. Binding of (CF3)4PFe was carried out in the same fashion, with the exception that the porphyrin was first dissolved in a stock of DMSO/CHCl3.
Electronic absorption spectra were collected using a Shimadzu UV-1700 UV-Vis spectrophotometer or Cary 5000 spectrophotometer. Steady-state emission spectra were obtained on FLS920P spectrophotometer (Edinburgh Instruments Ltd. Livingston, UK) in 1 cm quartz optical cells. The steady-state emission spectra were corrected using the correction factor generated by the manufacturer.

[2] = Binding of endogenous heme on expression in E. coli (absorption spectra); format: cell-based; details: expressed in E. coli, Soret and Q bands at 410 and 550 nm
Procedure: FIGS. 18A-18B. enFold proteins are capable of noncovalently binding endogenous ligands in the cell. […] Inset: E. coli cultures of after induction). FIG. 18B: Denovo proteins from binary sequence patterning. Previous studies have only been able to incorporate heme exogenously, i.e. after expression and purification, heme is added to the purified apo-protein. See Patel et al, Protein Science, 18:1388-1400.
The computational method described here is capable of producing proteins that noncovalently bind ligands in vivo. We have observed loading of endogenous heme in a PS1 variant, where 7 terminal residues near the binding ligand site were deleted to allow incorporation of a heme ligand with its bulky, charged proprionate functional groups (FIG. 16). […] These apo-proteins remain competent to bind an endogenous ligand, for example heme (FIG. 17 and FIGS. 18A-18B). These proteins are the first de novo designed proteins to our knowledge that noncovalently bind heme in vivo.

Row | Molecule | porphyrin loading ([1]; (CF3)4PZn, based on absorbance at 280 nm and 423 nm, 100 mM NaCl, 50 mM NaPi, pH 7.5) [%] | binding of (CF3)4PZn ([1]; narrow electronic absorption bands of the porphyrin) | binding / loading of endogenous heme [2] | binding / loading of endogenous heme ([2]; listed as PS1 deletion variant)
1 | B1 | 100 | bound (CF3)4PZn in a homogenous environment | – | –
2 | B2 | – | – | high loading of endogenous heme | binds endogenous heme
